The target in assay [1] is full-length mature cynomolgus EMR2 (residues Q24-N816) with N-terminal aspartic acid/lysine epitope tag, overexpressed on HEK293T cells (cynomolgus monkey (Macaca fascicularis)). The experiment in a line: flow cytometry on transduced HEK293T; 293 naive MFI ND.
The target is the same in assay [2].
For assay [3] the target is unchanged. In words: flow cytometry on transduced HEK293T; 293 naive MFI 96.8. Background: In flow cytometry, cells or beads pass a laser one at a time.

full-length mature cynomolgus EMR2 (residues Q24-N816) with N-terminal aspartic acid/lysine epitope tag, overexpressed on HEK293T cells (cynomolgus monkey (Macaca fascicularis)), sequence (chain, as listed by the source): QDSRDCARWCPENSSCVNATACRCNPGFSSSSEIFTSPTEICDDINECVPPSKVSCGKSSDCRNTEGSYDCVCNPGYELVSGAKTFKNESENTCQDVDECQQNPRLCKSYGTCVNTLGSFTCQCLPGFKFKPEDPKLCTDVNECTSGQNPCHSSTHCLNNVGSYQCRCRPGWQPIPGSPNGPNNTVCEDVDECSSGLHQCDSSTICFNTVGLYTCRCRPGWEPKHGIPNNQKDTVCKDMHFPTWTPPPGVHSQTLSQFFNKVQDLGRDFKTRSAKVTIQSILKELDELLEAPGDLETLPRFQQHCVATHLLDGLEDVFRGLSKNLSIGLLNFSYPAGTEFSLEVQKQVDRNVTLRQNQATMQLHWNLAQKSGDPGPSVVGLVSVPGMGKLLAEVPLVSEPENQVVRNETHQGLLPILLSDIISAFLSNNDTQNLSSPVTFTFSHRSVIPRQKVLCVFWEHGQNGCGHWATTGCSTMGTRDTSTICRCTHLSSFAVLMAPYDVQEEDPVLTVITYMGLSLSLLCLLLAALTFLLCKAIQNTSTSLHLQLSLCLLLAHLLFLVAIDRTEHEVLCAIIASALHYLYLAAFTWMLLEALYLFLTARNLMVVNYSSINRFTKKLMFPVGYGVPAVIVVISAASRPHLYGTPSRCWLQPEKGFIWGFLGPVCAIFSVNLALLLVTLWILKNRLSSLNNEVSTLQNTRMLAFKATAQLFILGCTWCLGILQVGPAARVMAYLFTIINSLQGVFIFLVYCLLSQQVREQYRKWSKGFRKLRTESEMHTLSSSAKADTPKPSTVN

B1: SC93.15 (antibody, IgG1, V domains shown)
VH: EVQLQQSGPELVKPGASVKISCKGSGYTFTDYFMNWVKLSHGKSLEWIGEINPNNGGTNYNQKFKGKATLTVDKSSSIAYMELRSLTSEDSAVYYCARPGTNYWGPGTTLTVSS
VL: DIVMTQSHKFMSTSVGDRVSITCKASQNVGTSVAWYQQKPGHSPKLLIYWASTRHTGVPDRFTGSGSGTDFSLTISSVQSEDLTDYFCQQYSSYPLTFGGGTKLEIK
B1 registered an FC MFI in assay [1] of 41.2. In addition, the % live, FAB-saporin killing assay in assay [2] worked out at 101%.

B2: SC93.216 (antibody, IgG1, V domains shown)
VH: EVQLVESGGGLVKPGGSLKLSCAASGFTFSSYGMSWVRQTPEKRLEWVAAIHSNGDITYYPDTVKGRFTISRDNAKNTLYLQMSSLTSEDTALYYCANLAYWGQGTLVTVSA
VL: EIQMTQSPSSMSASLGDRITITCQATQDIVKNLNWYQQKPGKSPSSLIYYATELAEGVPSRFSGSGSGSDYSLTISNLESEDFADYYCLQFYEFPLTFGAGTKLELK
For B2, the FC MFI in assay [3] turned out to be 220. The % live, FAB-saporin killing assay in assay [2] was found to be 105%.

(Values after patent publication US20180327506A1.)
